The record followed here is patent US20240251767A1.

Like-named read-outs stand apart in the source and are kept apart here.

For test [1], the target named is SARS-Cov2 Spike Active Trimer SAT (R&D Systems; Catalog No. 10549-CV) (SARS-CoV2) (UniProt P0DTC2).
The target in test [2] is SARS-CoV-2 Spike (S) protein with an inactivated furin site on HEK293-Spike cells (293-SARS2-S-dfur, (SARS-CoV-2) (UniProt P0DTC2)).
In test [3] the target is SARS-Cov2 Spike Active Trimer SAT (R&D Systems; Catalog No. 10549-CV) (SARS-CoV2) (UniProt P0DTC2). Kind of test: SPR (Biacore). In general terms: Surface plasmon resonance follows binding to a sensor surface in real time, without labels.
The target is the same in test [4]. As to the kind of experiment: SPR (Carterra).
For test [5] the target is unchanged. As to the kind of experiment: ELISA, serially diluted purified Nb-Fc on SAT antigen. Background: In an ELISA, binding on a coated surface is turned into a signal by an enzyme label.
Test [6] has the same target. The source holds these as a separate data set.

Turning to “human SAT Nb-Fc control VH-Ab-8 (HAb8-S) (Fc fusion)”, in test [1], the Response stood at 0.489, the koff was found to be 0.00294 s⁻¹ and the kon was found to be 149000 M⁻¹ s⁻¹. For the same substance, in test [2], the GMFI was determined as 430 and the GMFI Ratio amounted to 21.1. Moreover, the dissociation constant Kd in test [3] was determined as 5.7 nM. In addition, in test [4], the Kd is 37.3 nM. Also, the EC50 in test [5] stood at 0.018 nM. For the same substance, in test [6], the Kd turned out to be 19.8 nM.

One may read the koff as the rate constant with which the complex falls apart. High values mean fast dissociation, low ones slow dissociation. A word on the kon: it is the rate constant with which the complex forms. A higher kon goes with faster complex formation. What is called Kd is the constant that tells how readily two partners part at equilibrium. What is called EC50 is the concentration giving half of the maximal effect. A high value points to a less potent agent.
